Source: paper PMC3131266

Legend:
[1] = target: glycocalicin (Homo sapiens) (UniProt P07359); settings: cited from earlier work
[2] = target: glycocalicin, the carbohydrate-rich extracellular portion of the platelet membrane glycoprotein GPIbα (human) (UniProt P07359); experiment: binding of whole bacteria to immobilised protein in microtiter wells; as a1, bacteria diluted into DPBS containing 44 mM α-2,3-sialyl (1-thioethyl)galactose, pH 7.5, compared with DPBS alone
Chain of glycocalicin, the carbohydrate-rich extracellular portion of the platelet membrane glycoprotein GPIbα (human) (P07359 17-531): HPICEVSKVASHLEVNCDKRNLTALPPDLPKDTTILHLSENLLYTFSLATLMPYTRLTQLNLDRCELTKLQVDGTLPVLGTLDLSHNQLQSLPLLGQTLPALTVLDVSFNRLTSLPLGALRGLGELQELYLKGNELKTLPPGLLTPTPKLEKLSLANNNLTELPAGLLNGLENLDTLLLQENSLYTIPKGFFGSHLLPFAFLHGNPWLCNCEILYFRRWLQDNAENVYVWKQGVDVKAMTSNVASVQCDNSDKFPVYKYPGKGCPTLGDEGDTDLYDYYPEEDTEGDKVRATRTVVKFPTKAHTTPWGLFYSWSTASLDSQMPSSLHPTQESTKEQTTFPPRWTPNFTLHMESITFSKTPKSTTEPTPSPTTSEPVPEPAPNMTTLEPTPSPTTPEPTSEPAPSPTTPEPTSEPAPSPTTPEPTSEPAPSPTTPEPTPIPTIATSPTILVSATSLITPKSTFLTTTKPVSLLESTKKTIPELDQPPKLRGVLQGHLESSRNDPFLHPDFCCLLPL

Chain of GspB (Q939N5 86-3041): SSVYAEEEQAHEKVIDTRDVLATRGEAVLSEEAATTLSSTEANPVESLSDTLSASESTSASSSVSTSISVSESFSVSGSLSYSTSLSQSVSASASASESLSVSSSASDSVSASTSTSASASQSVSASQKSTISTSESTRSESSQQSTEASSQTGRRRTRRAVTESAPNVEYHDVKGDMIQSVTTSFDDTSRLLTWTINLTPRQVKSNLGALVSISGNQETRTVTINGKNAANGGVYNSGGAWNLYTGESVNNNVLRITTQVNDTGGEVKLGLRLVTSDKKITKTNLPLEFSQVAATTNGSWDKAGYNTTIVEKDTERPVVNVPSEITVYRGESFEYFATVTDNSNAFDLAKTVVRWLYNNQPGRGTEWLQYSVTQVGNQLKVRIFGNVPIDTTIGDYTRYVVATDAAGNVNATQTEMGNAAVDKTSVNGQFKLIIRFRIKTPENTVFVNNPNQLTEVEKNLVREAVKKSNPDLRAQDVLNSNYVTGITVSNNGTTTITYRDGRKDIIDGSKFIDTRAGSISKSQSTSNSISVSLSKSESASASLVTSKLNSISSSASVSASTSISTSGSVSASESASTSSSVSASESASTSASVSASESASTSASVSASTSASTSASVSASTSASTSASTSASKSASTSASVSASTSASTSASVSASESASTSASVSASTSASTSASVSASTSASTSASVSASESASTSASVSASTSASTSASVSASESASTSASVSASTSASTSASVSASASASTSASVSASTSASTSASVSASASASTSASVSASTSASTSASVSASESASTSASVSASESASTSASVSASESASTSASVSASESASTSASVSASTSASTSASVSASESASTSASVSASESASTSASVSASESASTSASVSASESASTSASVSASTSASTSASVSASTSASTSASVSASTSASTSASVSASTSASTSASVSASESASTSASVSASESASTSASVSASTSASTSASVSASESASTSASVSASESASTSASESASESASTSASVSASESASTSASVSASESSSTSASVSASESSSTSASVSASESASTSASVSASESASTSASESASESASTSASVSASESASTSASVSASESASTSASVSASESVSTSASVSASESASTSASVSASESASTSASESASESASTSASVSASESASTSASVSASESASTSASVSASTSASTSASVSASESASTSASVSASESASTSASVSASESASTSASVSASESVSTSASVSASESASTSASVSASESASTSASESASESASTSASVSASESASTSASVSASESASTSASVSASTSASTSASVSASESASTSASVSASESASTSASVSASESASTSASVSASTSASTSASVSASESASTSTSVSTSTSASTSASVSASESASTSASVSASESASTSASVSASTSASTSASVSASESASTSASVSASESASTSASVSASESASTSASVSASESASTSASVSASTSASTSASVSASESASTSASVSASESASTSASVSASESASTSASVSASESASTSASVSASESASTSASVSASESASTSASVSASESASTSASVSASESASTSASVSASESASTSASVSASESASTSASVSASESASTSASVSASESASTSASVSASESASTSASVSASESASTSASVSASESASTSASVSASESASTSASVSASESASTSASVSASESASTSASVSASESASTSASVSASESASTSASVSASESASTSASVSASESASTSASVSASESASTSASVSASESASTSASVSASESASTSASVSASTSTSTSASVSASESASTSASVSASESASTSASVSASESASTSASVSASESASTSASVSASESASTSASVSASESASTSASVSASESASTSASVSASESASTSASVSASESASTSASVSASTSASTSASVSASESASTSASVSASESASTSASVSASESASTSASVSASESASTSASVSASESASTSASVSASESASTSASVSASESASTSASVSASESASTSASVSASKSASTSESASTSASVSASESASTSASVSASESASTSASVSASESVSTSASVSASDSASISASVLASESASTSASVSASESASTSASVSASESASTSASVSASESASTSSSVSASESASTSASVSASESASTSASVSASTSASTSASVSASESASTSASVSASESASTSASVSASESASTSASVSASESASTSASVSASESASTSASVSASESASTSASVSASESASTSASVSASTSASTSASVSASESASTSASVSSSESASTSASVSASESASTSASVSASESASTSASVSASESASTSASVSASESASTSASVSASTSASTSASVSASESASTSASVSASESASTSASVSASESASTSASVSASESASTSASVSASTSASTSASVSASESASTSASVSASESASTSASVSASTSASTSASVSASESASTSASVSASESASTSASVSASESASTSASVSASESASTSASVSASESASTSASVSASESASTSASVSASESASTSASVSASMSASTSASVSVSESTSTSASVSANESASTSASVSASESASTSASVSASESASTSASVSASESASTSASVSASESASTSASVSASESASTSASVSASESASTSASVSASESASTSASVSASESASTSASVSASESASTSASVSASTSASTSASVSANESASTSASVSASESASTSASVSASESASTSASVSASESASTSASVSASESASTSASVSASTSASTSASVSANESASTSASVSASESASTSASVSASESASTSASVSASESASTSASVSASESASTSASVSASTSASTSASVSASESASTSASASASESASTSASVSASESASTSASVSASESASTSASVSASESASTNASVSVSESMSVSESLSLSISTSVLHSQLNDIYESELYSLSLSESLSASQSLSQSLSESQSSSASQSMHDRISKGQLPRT
Chain of glycocalicin (Homo sapiens) (P07359 17-506): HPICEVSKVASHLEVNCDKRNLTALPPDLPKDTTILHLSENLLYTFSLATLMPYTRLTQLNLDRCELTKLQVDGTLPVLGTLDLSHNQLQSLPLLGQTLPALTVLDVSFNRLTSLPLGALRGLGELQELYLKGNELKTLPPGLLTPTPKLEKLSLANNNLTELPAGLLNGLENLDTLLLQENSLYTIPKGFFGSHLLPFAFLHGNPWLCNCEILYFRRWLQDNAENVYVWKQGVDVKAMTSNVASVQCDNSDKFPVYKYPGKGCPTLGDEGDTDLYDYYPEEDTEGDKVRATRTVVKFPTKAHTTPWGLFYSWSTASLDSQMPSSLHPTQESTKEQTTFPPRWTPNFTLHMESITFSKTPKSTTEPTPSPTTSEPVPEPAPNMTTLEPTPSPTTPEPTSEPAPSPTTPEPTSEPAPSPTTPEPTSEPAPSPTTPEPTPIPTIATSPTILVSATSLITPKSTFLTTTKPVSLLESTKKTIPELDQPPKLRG

| Substance | Kd [1] | percent reduction of binding by 44 mM α-2,3-sialyl (1-thioethyl)galactose [2] |
| --- | --- | --- |
| GspB (from UniProt Q939N5) | 23.8 nM | – |
| GspB of Streptococcus gordonii strain M99, wild type, on the bacterial cell surface, Q939N5 86-3041 (natural protein; carries sialyl-T antigen carbohydrates (sites not stated)) | – | 90% |
